Experimental data from patent US20030211995A1, “Methods and formulations for eradicating or alleviating staphylococcal nasal colonization using lysostaphin” (priority 2001, published 2003).

Test system: S. aureus
Test: Proteinase K neutralization of lysostaphin activity in vitro
Type: cell-based
Conditions: 10^5 S. aureus in PBS; lysostaphin 10 mcg and/or 10 mg/ml Proteinase K; 20 minutes at room temperature
Method: Lysostaphin (10 mcg) was added to some samples of 10^5 S. aureus in PBS in the presence or absence of 10 mg/ml Proteinase K. The samples were incubated for 20 minutes at room temperatures and then 100 microliter aliquots were plated on blood agar.

B1: Proteinase K: protease used at 10 mg/ml to neutralize lysostaphin (protein, UniProt P06873 106-384, looked up)
Proteinase K: AAQTNAPWGLARISSTSPGTSTYYYDESAGQGSCVYVIDTGIEASHPEFEGRAQMVKTYYYSSRDGNGHGTHCAGTVGSRTYGVAKKTQLFGVKVLDDNGSGQYSTIIAGMDFVASDKNNRNCPKGVVASLSLGGGYSSSVNSAAARLQSSGVMVAVAAGNNNADARNYSPASEPSVCTVGASDRYDRRSSFSNYGSVLDIFGPGTSILSTWIGGSTRSISGTSMATPHVAGLAAYLMTLGKTTAASACRYIADTANKGDLSNIPFGTVNLLAYNNYQA
CFUs Recovered: 10^5 CFUs
